± gives the standard deviation of the averaged measurements.
System: Saccharomyces cerevisiae
Assay: protein stability index of tFT-peptide fusion (C-terminal peptide) (PSI (0-1 scale)); higher = more stable (slower turnover)
Conditions: genetic background: wild type; temperature: 30 C
Protocol: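 Multiplexed protein stability (MPS) profiling in S. cerevisiae. Random 12-aa peptides (tFT-X12 library) are fused to the C-terminus of a sfGFP-mCherry tandem fluorescent timer, after mCherry and a GGGS linker. Cells are FACS-sorted into 8 mCherry/sfGFP bins and deep-sequenced. The protein stability index (PSI) is the read-weighted bin average, scaled from 0 (unstable) to 1 (stable). Only peptides with >10 reads are reported; cells were grown at 30 °C in SC-His with glucose.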
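Note: PSI is a weighted mean of sequencing reads over stability bins, variants kept only with over 10 reads, mCherry proximal and sfGFP distal, peptide attached via GGGS linker.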

Sequence	protein stability index
PASIVPPPPVPL	0.777 ± 0.13
SPKDKARMQKQS	0.602 ± 0.063
RVEIKNKKKIRT	0.696 ± 0.083
PPLTPLPLGSPP	0.717 ± 0.027
SSPSPASSPPPP	0.677 ± 0.057
KKSVDKNKEIKL	0.681 ± 0.12
TVGRILEVSRRG	0.66 ± 0.025
NLRGPEYVKRTD	0.677 ± 0.021
RLFSYLSTLSFI	0.727 ± 0.053
GAGDGRGRIEGR	0.674 ± 0.015
ISFTDPSMGTLG	0.608 ± 0.11
GVLRIRIGLGRG	0.653 ± 0.028
TRCLPPPVPPSL	0.729 ± 0.014
PPDPSTLSTSPS	0.689 ± 0.042
PPCVSGHPLRYS	0.727 ± 0.045
SPLPYTPPLRAF	0.5238 ± 0.0029
FCKTKVRDKATR	0.73 ± 0.035
LSGRQKLNMSIR	0.682 ± 0.029
LPPTPTLPLVPP	0.7153 ± 0.0053
GARGMGGLFFLG	0.728 ± 0.053
PSHFSPPSAPPP	0.738 ± 0.055
GRSGGEGGGEEE	0.681 ± 0.029
PPTRPPPALIPP	0.711 ± 0.022
GGVRSLLWAVVW	0.583 ± 0.009
PMLGMSTLGDRF	0.657 ± 0.038

Sequence	protein stability index
PPRQPACAFLPS	0.653 ± 0.09
PRSLPAGHPSRG	0.692 ± 0.028
PLSTCLAARCPL	0.725 ± 0.085
PRLRPFATPNCF	0.636 ± 0.046
VGFPLVSSPLRL	0.566 ± 0.059
ECVERYLFGEGA	0.71403 ± 0.00042
TLDGEAILVIYI	0.5944 ± 0.0051
VCHYKVSFSCLL	0.64 ± 0.044
TGDTIQNTNCEM	0.689 ± 0.027
PASPRDPLPRLP	0.764 ± 0.12
FFGSFVFSLLFY	0.6025 ± 0.0047
PRLARSASLDSP	0.731 ± 0.08
PPRPRPRPLSPP	0.65 ± 0.039
FVNKRRGCRELE	0.701 ± 0.0053
MFGTVVFGAHRR	0.749 ± 0.015
RGFCGGLWRPGV	0.769 ± 0.013
PVGGAGCVRGGV	0.749 ± 0.19
GRRRVSTAPRTT	0.739 ± 0.056
PVTPHESVVPSL	0.686 ± 0.02
GGVRGGAAEGAV	0.751 ± 0.076
FRGTLRFYRPVN	0.696 ± 0.016
CYPIPEGWIGLM	0.607 ± 0.045
KKRKEIKNREEK	0.739 ± 0.035
VDVHWSVLCPLG	0.851 ± 0.098
FGCDCFCPFCLR	0.706 ± 0.019

Sequence	protein stability index
FPRRPSPGPLIS	0.678 ± 0.035
FFPQLRPNSSTS	0.724 ± 0.042
SHILPCTCPLAA	0.574 ± 0.044
PWSFSPLPFVLL	0.673 ± 0.037
PVITPPSSTPPI	0.6815 ± 0.0021
WGRLRFFDCSGF	0.605 ± 0.014
GADTSRSYRIGL	0.757 ± 0.0085
GVGEWRSGVGVG	0.592 ± 0.043
PVLPPRSFPPSS	0.697 ± 0.014
YEACQTGASICR	0.7125 ± 0.0013
PPPLPPPSLLPT	0.762 ± 0.043
TLPARTIHTTGH	0.717 ± 0.028
RSTFSGSSTLVY	0.568 ± 0.0084
PPLPPPRRSSPP	0.705 ± 0.02
PPPHPPLPPPTP	0.678 ± 0.039
SGVAAGLVAGSL	0.673 ± 0.12
SPTAHAPALPSP	0.692 ± 0.049
PRPLPSPPHPRP	0.71 ± 0.026
SARVVCSSCFPM	0.668 ± 0.017
RERVVSVKLGGG	0.688 ± 0.018
RTCRYRRVPAET	0.729 ± 0.066
LSADVNRRLGLS	0.674 ± 0.035
CVFGSHCRVLVV	0.556 ± 0.028
WERGKGGLVMEG	0.646 ± 0.0067
RCLSVLGLFVGW	0.634 ± 0.033

Sequence	protein stability index
LGSVVADGPHKL	0.625 ± 0.0097
ITAATFCRRPAS	0.659 ± 0.12
DAYLGKRESRLW	0.615 ± 0.07
SPLFFPSSPPYP	0.751 ± 0.023
STHSRLCATVPP	0.591 ± 0.027
NKTKKKRTEPQP	0.6616 ± 0.005
VRAVFPRSGLSC	0.696 ± 0.048
VKSSSCSVLRSL	0.7 ± 0.038
RDKAVAGKKGGS	0.682 ± 0.017
LFTSCPPDVRSL	0.667 ± 0.012
FSCKRMISKTGF	0.669 ± 0.035
EKRDENENTNKK	0.66 ± 0.072
KGRKKKKRKEQE	0.693 ± 0.016
KTKEYKYEKRKT	0.596 ± 0.027
PPPPSLPPSFPS	0.67 ± 0.072
GDRRRVFGSEQR	0.662 ± 0.088
GLERGRLGSGCG	0.652 ± 0.0075
SSYFCESWMFDL	0.756 ± 0.023
QFTRSRSRRVRS	0.6385 ± 0.0048
SSPPPPPRPAPT	0.681 ± 0.15
SRSPPPPALPPL	0.702 ± 0.05
LLGRWVAGSRGG	0.746 ± 0.017
LLAPSPPPPLPP	0.61 ± 0.13
AGDTCRLRIHVD	0.728 ± 0.021
RRSLSPPRPRYM	0.7 ± 0.018

Sequence	protein stability index
FRCQHVRVSASF	0.799 ± 0.028
FVRPPHTTHPHP	0.681 ± 0.041
SPSPHSPHPTPH	0.738 ± 0.085
VHLYGRTAGRGV	0.816 ± 0.06
VGVSWSMYCANW	0.631 ± 0.11
IPLPMLLHLPRA	0.684 ± 0.019
GSQCPVLEQQRD	0.655 ± 0.018
PRQACPLPLPHV	0.655 ± 0.029
SPVSPTSNSPAC	0.649 ± 0.085
QSPPRHPSPTAS	0.683 ± 0.082
SRSRCGSRAVAF	0.694 ± 0.029
PPFLPASHPAPS	0.824 ± 0.065
CSPGVSGVSSVD	0.685 ± 0.026
GILSPSSLVSSL	0.69 ± 0.057
RFRCGLPMQERT	0.689 ± 0.064
AAGSVFAEGYTG	0.686 ± 0.042
KTKKKKEQTKKK	0.808 ± 0.15
EVDSTLAPHGHP	0.866 ± 0.041
EEGGEVREGKQA	0.702 ± 0.019
PASYSAPVSLFI	0.7035 ± 0.002
PAKNKKKKKNRK	0.6911 ± 0.0031
FCFFGRPCLSSV	0.714 ± 0.14
PCLGATSNTGRY	0.732 ± 0.045
GWESERWSTLHK	0.763 ± 0.024
VSLPTAPFPLPS	0.844 ± 0.084

Sequence	protein stability index
PLPPPPLPPLPP	0.702 ± 0.028
SRTWGDVVSSGT	0.715 ± 0.0099
GTATINQISSPQ	0.673 ± 0.028
RIKKTRVVRQKM	0.547 ± 0.04
TWSSLVSAVRRN	0.701 ± 0.079
YCRQVSYERPTK	0.743 ± 0.077
LGGLRRGSGREG	0.678 ± 0.015
GTKEYKKNRKII	0.653 ± 0.03
PPPSPGSSAPPP	0.676 ± 0.037
EWVCRAGVQGGA	0.691 ± 0.017
KAGVWLWGGGGG	0.678 ± 0.069
GTVWQSNSGAAT	0.68 ± 0.028
GLFSGRCLCGGG	0.688 ± 0.025
RQSSPPPRIAPT	0.6783 ± 0.0057
NCRGNLDFGPLV	0.727 ± 0.042
PPLLPLCVPPPP	0.71 ± 0.033
HDEGLEGLTVVF	0.675 ± 0.019
SHSRRSNMTLFV	0.721 ± 0.073
YVRLSTLCGSAY	0.58 ± 0.036
SCLGGRISSRCG	0.69 ± 0.017
HGSYYSAVWGKG	0.684 ± 0.096
